Assay results taken from patent publication US20240360203A1.

Experiments:
[1] = target: SARS-CoV-1 spike protein (SARS-CoV-1) (UniProt P59594); assay: cell-based or functional assay
[2] = target: WIV1 spike protein (bat SARS-like coronavirus WIV1); assay: cell-based or functional assay
[3] = target: HIV-1 Env peptide, biotinylated (negative control) (HIV-1); assay: DELFIA on captured biotin-peptide; set-up: unit not given beside the values

Row | Substance | pseudovirus neutralization Emax (% neutralization) [1] | pseudovirus neutralization Emax (% neutralization) [2] | AUC [3]
1 | Bebtelovimab (antibody) | 8 | 6.99 | 
2 | isotype control (palivizumab variable regions expressed as human IgG1 with LS mutation in the Fc region) (antibody) |  |  | 41500
